Target: Ageratum yellow vein virus capsid protein (CP), in the geminate virus particle (Ageratum yellow vein virus)
Test: cryo-EM structure; single-particle cryo-EM of purified AYVV geminate particles, D5 symmetry, 3.3 Å; particles in 100 mM sodium phosphate pH 7.0; capsid holds the genomic ssDNA

With “Ageratum yellow vein virus capsid protein (CP), in the geminate virus particle (natural protein)” the stoichiometry N was 110.

From publication PMC6006435
